Experimental findings from patent publication US20030028002A1, “Cyclin D binding factor, and uses thereof” (published 2003) are described below.

One data set addresses T1, Ets1 DNA-binding domain (UniProt P14921 P14921:335-415).
T1 sequence: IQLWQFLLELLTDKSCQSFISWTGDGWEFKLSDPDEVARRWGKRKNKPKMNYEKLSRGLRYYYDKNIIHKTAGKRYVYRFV
Description: EMSA. As to the method: (§1) Electrophoretic mobility shift assay (EMSA). Recombinant DMP1 protein was prepared in Sf9 cells [Hirai and Sherr, Mol. Cell. Biol. 16:6457-6467 (1996)]. Purified bacterial proteins representing the Ets1 DNA binding domain or full-length Ets1 [Inoue, et al., J. Biol. Chem. 273:29188-29194 (1998)] were used. EMSAs were performed [Inoue and Sherr, Mol. Cell. Biol. 18:1590-1600 (1998)] using either a 281-bp genomic fragment (−225 to +56) or double-stranded oligonucleotides containing the DMP1/Ets site obtained by annealing oligonucleotide 5′-[…]-3′ (sense strand SEQ ID NO:41); DMP1/Ets consensus sequence underlined) with a complementary antisense strand. For competition experiments, a 200-fold excess of unlabelled oligonucleotides was added to reaction mixtures before the probe. To verify the identity of the proteins in shifted complexes, reaction mixtures were incubated with control nonimmune rabbit serum (NRS), serum AF [Hirai and Sherr, Mol. Cell. Biol. 16:6457-6467 (1996)] and M-10 (both to DMP1 carboxylterminal epitopes), S-19 (DMP1 N-terminus), or C-20 (Ets1 C-terminus) before electrophoresis. M-10, S-19, and C-20 were from Santa Cruz Biotechnology.

The next data set concerns the target T2, Ets1 full length (UniProt P14921 P14921:1-441).
T2 sequence: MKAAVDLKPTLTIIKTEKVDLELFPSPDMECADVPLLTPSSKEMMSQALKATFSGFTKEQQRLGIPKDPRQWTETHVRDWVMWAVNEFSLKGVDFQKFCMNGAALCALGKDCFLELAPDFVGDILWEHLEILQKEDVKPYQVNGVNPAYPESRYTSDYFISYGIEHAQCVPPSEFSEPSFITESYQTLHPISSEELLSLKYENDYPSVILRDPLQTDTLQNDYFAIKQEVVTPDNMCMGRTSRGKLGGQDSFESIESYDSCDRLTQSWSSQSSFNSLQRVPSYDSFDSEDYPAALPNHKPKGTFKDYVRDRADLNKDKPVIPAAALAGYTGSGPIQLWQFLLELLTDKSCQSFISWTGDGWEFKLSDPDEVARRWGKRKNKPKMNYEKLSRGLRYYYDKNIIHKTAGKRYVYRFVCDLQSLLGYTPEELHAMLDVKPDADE
Briefly: EMSA; supershifted by Ets1 antiserum. The method, then: as §1

B1: ARF DMP1/Ets site oligo 23 bp (dsDNA)
DNA 1: AATTGGGACCCCGGATGCGGCAG
DNA 2: CTGCCGCATCCGGGGTCCCAATT
Regarding B1, the binding result with Ets1 DNA-binding domain and in the data set with Ets1 full length was “binds” each time.
